B1: GLI1_(1-232), wild type, 35S-radiolabeled [modified: [35S]-methionine label; [35S]-methionine label] [human] / GST-SUFU (fusion of GST to full-length human SUFU) [human] (parent)
chain 1: MFNSMTPPPISSYGEPCCLRPLPSQGAPSVGTEGLSGPPFCHQANLMSGPHSYGPARETNSCTEGPLFSSPRSAVKLTKKRALSISPLSDASLDLQTVIRTSPSSLVAFINSRCTSPGGSYGHLSIGTMSPSLGFPAQMNHQKGPSPSFGVQPCGPHDSARGGMIPHPQSRGPFPTCQLKSELDMLVGKCREEPLEGDMSSPNSTGIQDPLLGMLDGREDLEREEKREPESV
chain 2: MAELRPSGAPGPTAPPAPGPTAPPAFASLFPPGLHAIYGECRRLYPDQPNPLQVTAIVKYWLGGPDPLDYVSMYRNVGSPSANIPEHWHYISFGLSDLYGDNRVHEFTGTDGPSGFGFELTFRLKRETGESAPPTWPAELMQGLARYVFQSENTFCSGDHVSWHSPLDNSESRIQHMLLTEDPQMQPVQTPFGVVTFLQIVGVCTEELHSAQQWNGQGILELLRTVPIAGGPWLITDMRRGETIFEIDPHLQERVDKGIETDGSNLSGVSAKCAWDDLSRPPEDDEDSRSICIGTQPRRLSGKDTEQIRETLRRGLEINSKPVLPPINPQRQNGLAHDRAPSRKDSLESDSSTAIIPHELIRTRQLESVHLKFNQESGALIPLCLRGRLLHGRHFTYKSITGDMAITFVSTGVEGAFATEEHPYAAHGPWLQILLTEEFVEKMLEDLEDLTSPEEFKLPKEYSWPEKKLKVSILPDVVFDSPLH

Variants of: B1
Experiment: GST-SUFU pull-down binding assay with 35S-radiolabeled in vitro-translated GLI1
Conditions: 10 nM GST-SUFU, parent: 55, read off a plot

| Variant | response [% GLI1 Bound] |
| --- | --- |
| chain 1 MFNSMTPPPISSYGEPCCLRPLPSQGAPSVGTEGLSGPPFCHQANLMSGPHSYGPARETNSCTEGPLFSSPRSAVKLTKKRALSISPLSDASLDLQTVIRTSPSSLVAFINSRCTSPGGSYGHLSIGTMEPSLGFPAQMNHQKGPSPSFGVQPCGPHDSARGGMIPHPQSRGPFPTCQLKSELDMLVGKCREEPLEGDMSSPNSTGIQDPLLGMLDGREDLEREEKREPESV [chain 1 S130E] | 33 |

Same assay, conditions: 20 nM GST-SUFU, parent: 67, read off a plot

| Variant | response [% GLI1 Bound] |
| --- | --- |
| chain 1 MFNSMTPPPISSYGEPCCLRPLPSQGAPSVGTEGLSGPPFCHQANLMSGPHSYGPARETNSCTEGPLFSSPRSAVKLTKKRALSISPLSDASLDLQTVIRTSPSSLVAFINSRCTSPGGSYGHLSIGTMEPSLGFPAQMNHQKGPSPSFGVQPCGPHDSARGGMIPHPQSRGPFPTCQLKSELDMLVGKCREEPLEGDMSSPNSTGIQDPLLGMLDGREDLEREEKREPESV [chain 1 S130E] | 52 |

Same assay, conditions: 40 nM GST-SUFU, parent: 80, read off a plot

| Variant | response [% GLI1 Bound] |
| --- | --- |
| chain 1 MFNSMTPPPISSYGEPCCLRPLPSQGAPSVGTEGLSGPPFCHQANLMSGPHSYGPARETNSCTEGPLFSSPRSAVKLTKKRALSISPLSDASLDLQTVIRTSPSSLVAFINSRCTSPGGSYGHLSIGTMEPSLGFPAQMNHQKGPSPSFGVQPCGPHDSARGGMIPHPQSRGPFPTCQLKSELDMLVGKCREEPLEGDMSSPNSTGIQDPLLGMLDGREDLEREEKREPESV [chain 1 S130E] | 61 |

Same assay, conditions: 80 nM GST-SUFU, parent: 95, read off a plot

| Variant | response [% GLI1 Bound] |
| --- | --- |
| chain 1 MFNSMTPPPISSYGEPCCLRPLPSQGAPSVGTEGLSGPPFCHQANLMSGPHSYGPARETNSCTEGPLFSSPRSAVKLTKKRALSISPLSDASLDLQTVIRTSPSSLVAFINSRCTSPGGSYGHLSIGTMEPSLGFPAQMNHQKGPSPSFGVQPCGPHDSARGGMIPHPQSRGPFPTCQLKSELDMLVGKCREEPLEGDMSSPNSTGIQDPLLGMLDGREDLEREEKREPESV [chain 1 S130E] | 72 |

Source: article PMC9279676, “ERK2 MAP kinase regulates SUFU binding by multisite phosphorylation of GLI1” (Life Science Alliance, 2022)
